From US20250282860A1 (SUZHOU FORLONG BIOTECHNOLOGY, published 2025)
Substitutions are numbered along the chain they refer to. In names and notes the source's numbering stands. One block for each binder: values may come before it.

Experiments:
IL-2 receptor α [1] = molecular target: T1, IL-2 receptor α (UniProt P01589 22-213, limits assumed); assay: BLI, AHC probes
T1 construct: BLI used Anti-human IgG Fc Capture (AHC) probes with the IL-2 mutant diluted as analyte; also called IL-2Rα; CD25
T1 sequence (looked up): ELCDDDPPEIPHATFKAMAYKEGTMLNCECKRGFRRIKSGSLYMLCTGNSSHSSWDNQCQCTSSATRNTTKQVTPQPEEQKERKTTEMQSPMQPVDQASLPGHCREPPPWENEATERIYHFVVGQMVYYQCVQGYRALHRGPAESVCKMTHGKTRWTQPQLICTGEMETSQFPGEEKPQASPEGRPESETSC

IL-2 receptor α [2] = molecular target: T1, IL-2 receptor α; assay: BLI with AHC probes; C125A protein in 3-fold dilutions from 100 nM to 1.23 nM
IL-2 receptor β = molecular target: T2, IL-2 receptor β (UniProt P14784 27-239, limits assumed); assay: BLI, AHC probes, IL-2 diluted 3-fold from 1000 nM to 12.35 nM
T2 construct: BLI used Anti-human IgG Fc Capture (AHC) probes with the IL-2 mutant diluted as analyte; also called IL-2Rβ; CD122
T2 sequence (looked up): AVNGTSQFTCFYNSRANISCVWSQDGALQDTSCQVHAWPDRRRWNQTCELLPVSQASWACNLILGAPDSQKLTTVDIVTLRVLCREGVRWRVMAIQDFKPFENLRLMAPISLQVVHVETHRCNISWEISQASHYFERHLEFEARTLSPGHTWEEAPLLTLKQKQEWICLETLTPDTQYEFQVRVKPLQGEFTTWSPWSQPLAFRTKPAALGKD

B1: IL-2 mutant 21-C1 (ligand)
chain: APTSSSTKKTQLQLEHLLLDLQMILNGINNYKNPLLTDMLTLHFYMPKKATELKHLQCLEEELKPLEEVLNFAQSKNFHLRPRDLISNINVIVLELKGSETTFMCEYADETATIVEFLNRWITFCQSIISTLT
notes: Expressed in Expi293; also called 1.21-C1
- binding result (IL-2 receptor α [1]): no binding (tested: 100 nM highest concentration)

B2: IL-2 mutant 24-D2 (ligand)
chain: B1 chain with L35E, L42F, H43K, F72G
notes: Expressed in Expi293; also called 13.24-D2
- binding result (IL-2 receptor α [1]): no binding (tested: 100 nM highest concentration)

- binding result (IL-2 receptor α [2]): no binding (tested: 100 nM)
B3: IL-2 mutant 22-E8-C125A (ligand)
chain: B1 chain with L35D, D38E, L42F, H43K, F72Q, C125A

B4: IL-2 mutant 24-C2 (ligand)
chain: B1 chain with L35D, D38E, L42F, H43K, F72S
notes: Expressed in Expi293; also called 11.24-C2
- binding result (IL-2 receptor α [1]): no binding (tested: 100 nM highest concentration)

B5: IL-2 mutant 22-B2 (ligand)
chain: B1 chain with L35S, H43Q
notes: Expressed in Expi293; also called 5.22-B2
- binding result (IL-2 receptor α [1]): no binding (tested: 100 nM highest concentration)

B6: IL-2 mutant 22-A4 (ligand)
chain: B1 chain with L35G, L42I, H43Q, Y45F
notes: Expressed in Expi293; also called 4.22-A4
- binding result (IL-2 receptor α [1]): no binding (tested: 100 nM highest concentration)

B7: IL-2 mutant 22-E8 (ligand)
chain: B1 chain with L35D, D38E, L42F, H43K, F72Q
notes: Expressed in Expi293; also called 7.22-E8
- binding result (IL-2 receptor α [1]): no binding (tested: 100 nM highest concentration)

- binding result (IL-2 receptor α [2]): no binding (tested: 100 nM)
B8: IL-2 mutant 23-C8-C125A (ligand)
chain: B1 chain with L35G, L42F, H43N, C125A

B9: IL-2 mutant 23-C8 (ligand)
chain: B1 chain with L35G, L42F, H43N
notes: Expressed in Expi293; also called 9.23-C8
- binding result (IL-2 receptor α [1]): no binding (tested: 100 nM highest concentration)

B10: IL-2 mutant 24-C6 (ligand)
chain: B1 chain with L35E, D38E, L42F, H43K, F72A
notes: Expressed in Expi293; also called 12.24-C6
- binding result (IL-2 receptor α [1]): no binding (tested: 100 nM highest concentration)

B11: IL-2 mutant 24-E4 (ligand)
chain: B1 chain with L35D, L42F, H43K, F72A
notes: Expressed in Expi293; also called 14.24-E4
- binding result (IL-2 receptor α [1]): no binding (tested: 100 nM highest concentration)

- binding result (IL-2 receptor α [2]): no binding (tested: 100 nM)
B12: IL-2 mutant 24-E4-C125A (ligand)
chain: B1 chain with L35D, L42F, H43K, F72A, C125A

- binding result (IL-2 receptor α [2]): no binding (tested: 100 nM)
B13: IL-2 mutant 24-D2-C125A (ligand)
chain: B1 chain with L35E, L42F, H43K, F72G, C125A

- Kd (IL-2 receptor β): 50 nM
B14: IL-2 mutant 21-F9 (ligand)
chain: B1 chain with L35M, L42V, H43G, Y45F
notes: Expressed in Expi293; also called 2.21-F9
- binding result (IL-2 receptor α [1]): no binding (tested: 100 nM highest concentration)

- binding result (IL-2 receptor α [2]): no binding (tested: 100 nM)
B15: IL-2 mutant 24-C2-C125A (ligand)
chain: B1 chain with L35D, D38E, L42F, H43K, F72S, C125A

B16: IL-2 mutant 23-H9 (ligand)
chain: B1 chain with L35G, L42Y, H43S, Y45D, F72L
notes: Expressed in Expi293; also called 10.23-H9
- binding result (IL-2 receptor α [1]): no binding (tested: 100 nM highest concentration)

B17: IL-2 mutant 21-F10 (ligand)
chain: B1 chain with L35E, L42F, H43K, F72A
notes: Expressed in Expi293; also called 3.21-F10
- binding result (IL-2 receptor α [1]): no binding (tested: 100 nM highest concentration)

- binding result (IL-2 receptor α [2]): no binding (tested: 100 nM)
B18: IL-2 mutant 21-F10-C125A (ligand)
chain: B1 chain with L35E, L42F, H43K, F72A, C125A

B19: IL-2 mutant 22-D11 (ligand)
chain: B1 chain with L35D, H43R, Y45F
notes: Expressed in Expi293; also called 6.22-D11
- binding result (IL-2 receptor α [1]): no binding (tested: 100 nM highest concentration)
